In paper PMC10325903, “Prediction of cooperative homeodomain DNA binding sites from high-throughput-SELEX data”:

B1: Bsx_SELEX_1+1 (dsDNA)
DNA 1: TATGAAATCAATTATCGTCATTAAGTTCGTAGTGCGGGCGTGGCT
DNA 2: AGCCACGCCCGCACTACGAACTTAATGACGATAATTGATTTCATA
B2: Barx1_SELEX_2+1 (dsDNA)
DNA 1: TATTCGAAACAATTAAATAGACGATTACTGTAGTGCGGGCGTGGCT
DNA 2: AGCCACGCCCGCACTACAGTAATCGTCTATTTAATTGTTTCGAATA
B3: Bsx_SELEX_1 (dsDNA)
DNA 1: TATGAAATCAATTATCTCATTAAGTTCGTAGTGCGGGCGTGGCT
DNA 2: AGCCACGCCCGCACTACGAACTTAATGAGATAATTGATTTCATA

Tests used:
[1] = target: Bsx HD fragment (UniProt Q810B3 84-193); assay: EMSA; EMSA, 34 nM IRDye700 probe, room temperature 20 min, 4% polyacrylamide gel 150 V 2 h; binding buffer as in cited ref 35 (not given); conditions: protein: recombinant; tags: N-terminal 6xHis (pET-14b or pET-14P; may be cleaved); chain copies: 2; label: 5' IRDye700 on bottom strand; blunt
[2] = target: T1, Barx1 HD fragment (UniProt Q9ER42 95-221); assay: as above; conditions: protein: recombinant; tags: N-terminal 6xHis (pET-14b or pET-14P; may be cleaved); chain copies: 2; label: 5' IRDye700 on bottom strand; blunt
T1 sequence: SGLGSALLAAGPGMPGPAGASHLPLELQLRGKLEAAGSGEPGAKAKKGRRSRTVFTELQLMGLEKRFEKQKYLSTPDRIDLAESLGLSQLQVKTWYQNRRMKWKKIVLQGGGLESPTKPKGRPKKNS

Chain of Bsx HD fragment (Q810B3 84-193): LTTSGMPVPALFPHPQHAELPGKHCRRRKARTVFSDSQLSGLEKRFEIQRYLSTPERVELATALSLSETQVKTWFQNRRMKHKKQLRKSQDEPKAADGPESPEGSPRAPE

Row | Binder | cooperativity factor (tau) [1] [Tau cooperativity factor] | cooperativity factor (tau) [2] [Tau cooperativity factor]
1 | B1 | 0.9 ± 0.3 | –
2 | B2 | – | 0.7 ± 0.2
3 | B3 | 9.8 ± 1 | –
